# Measured values from patent publication US20200247855A1, “THERAPY AND DIAGNOSTICS” (OXFORD UNIVERSITY INNOVATION LIMITED, priority 2017, published 2020).
# Read-outs that look alike come from different tables or passages of the source.
# T1: CCL15_HUMAN (Homo sapiens, UniProt Q16663)
# T1 sequence (Q16663 22-113): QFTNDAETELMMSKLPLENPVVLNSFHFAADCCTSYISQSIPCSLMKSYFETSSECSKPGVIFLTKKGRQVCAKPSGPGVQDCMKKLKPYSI
# T2: CCL19_HUMAN (Homo sapiens, UniProt Q99731)
# T2 sequence (Q99731 22-98): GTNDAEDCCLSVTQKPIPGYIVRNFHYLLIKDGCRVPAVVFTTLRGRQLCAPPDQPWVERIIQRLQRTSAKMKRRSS
# T3: CCL25_HUMAN (Homo sapiens, UniProt O15444)
# T3 sequence (O15444 24-150): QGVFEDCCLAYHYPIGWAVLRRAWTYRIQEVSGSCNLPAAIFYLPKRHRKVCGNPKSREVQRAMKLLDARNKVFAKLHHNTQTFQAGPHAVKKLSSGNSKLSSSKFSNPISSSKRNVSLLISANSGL
# T4: CCL5_HUMAN (Homo sapiens, UniProt P13501)
# T4 sequence (P13501 24-91): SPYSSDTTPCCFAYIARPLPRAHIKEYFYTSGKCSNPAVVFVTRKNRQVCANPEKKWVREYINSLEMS
# T5: CXCL3_HUMAN (Homo sapiens, UniProt P19876)
# T5 sequence (P19876 35-107): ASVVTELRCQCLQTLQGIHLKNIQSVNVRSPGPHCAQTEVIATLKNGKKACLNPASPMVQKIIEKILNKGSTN
# T6: CXCL1_HUMAN (Homo sapiens, UniProt P09341)
# T6 sequence (P09341 35-107): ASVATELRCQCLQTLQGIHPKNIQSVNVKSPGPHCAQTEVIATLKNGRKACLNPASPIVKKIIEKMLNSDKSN
# T7: CXCL8_HUMAN (Homo sapiens, UniProt P10145)
# T7 sequence (P10145 21-99): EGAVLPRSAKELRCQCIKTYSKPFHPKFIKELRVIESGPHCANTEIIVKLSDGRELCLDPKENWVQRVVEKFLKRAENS
# T8: CCL4_HUMAN (Homo sapiens, UniProt P13236)
# T8 sequence (P13236 24-92): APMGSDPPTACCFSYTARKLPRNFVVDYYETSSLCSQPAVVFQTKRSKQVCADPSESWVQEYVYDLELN
# B1: P1006_AMBCA: tick CKBP, Amblyomma cajennense (protein)
# chain: DTIGGIPGCGDPATTSAPEDQPKHYAVRTDKNGCKVMVIGTWMTKEDHNLLPPYISKERAPSGKVQLPASCKKNCHGKLKNLPNGTPCREVFGDLRRRRKHIKDGCKVGKCQNGLCVSEERIISCYLPPNITDPRPTHGPLAE
# modifications: Amblyomma cajennense
# B2: P1156_IXORI: tick CKBP, Ixodes ricinus (protein, listed as Ixodes ricinus)
# chain: ADDDNELFTVQYCGMNCTKDEGGTWTGCTGKKEGCKCYHESGKNYGLCLSTEYTDFSQYGNPSDSEIEAAKPKRSDTLSH
# B3: EVASIN3: previously described tick CKBP evasin 3, from Rhipicephalus sanguineus (protein, listed as Rhipicephalus sanguineus)
# chain: LVSTIESRTSGDGADNFDVVSCNKNCTSGQNECPEGCFCGLLGQNKKGHCYKIIGNLSGEPPVVRR
# B4: P1014_AMBCA: tick CKBP, Amblyomma cajennense (protein)
# chain: DIIGGIPGCGDPTTTSAPEVPPKHFAVRTDKDGCTLMIIGTWMTTEDHNRLPPDIGEKRAPYGRVQLPASCKKNCHGKVKNLPNGTPCREVFGDPRRGRKHIKNGCTVGKCQSGLCVTDKRIISCYIPPNITDPIPTHGPWAE
# modifications: Amblyomma cajennense
# Legend:
# [1] = target: T1, CCL15_HUMAN; assay: Yeast surface display (YSD) FACS binding
# Outline: (§1)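 Yeast clones displaying tick peptides were re-tested by FACS with labelled chemokine. Binding = % of peptide-expressing yeast above a background threshold set with streptavidin-Alexa647 alone; the mean percent shift was used where several clones were isolated. Confirmed binding ("YES") required >3-fold over background mean fluorescence intensity.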
# [2] = target: T2, CCL19_HUMAN; assay: Yeast surface display (YSD) FACS binding
# Outline: as §1
# [3] = target: T3, CCL25_HUMAN; assay: Yeast surface display (YSD) FACS binding
# Outline: as §1
# [4] = target: T4, CCL5_HUMAN; assay: Yeast surface display (YSD) FACS binding
# Outline: as §1
# [5] = target: T5, CXCL3_HUMAN; assay: Biolayer interferometry (BLI) binding
# Outline: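 First, His-tagged tick CKBP is immobilised on a Ni-NTA tip. Second, chemokine is applied at 300 nM to screen for binding. Third, positive pairs are titrated with varying chemokine doses and association/dissociation fits give Kd in molar units.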
# [6] = target: T6, CXCL1_HUMAN; assay: Biolayer interferometry (BLI) binding; design: label (chemical)
# Experimental: (§2) Table 1. Tick CKBPs described in PCT/GB2017/050563 and [17]. Tick peptide sequences isolated in yeast surface display fluorescent-activated cell sorting (FACS) screens using a labelled chemokine. Identity with Evasin-1, 4 or 3 was calculated using BLAST. Abbreviations: IXORI—Ixodes ricinus, RHISA—Rhipicephalus sanguineus, AMBMA—Amblyomma maculatum, AMBPA—Amblyomma parvum, AMBTR—Amblyomma triste, AMBAM—Amblyomma americanum, AMBCA—Amblyomma cajennense, RHIPU—Rhipicephalus pulchellus. Table 2A-C. Binding characteristics of tick CKBPs previously disclosed (PCT/GB2017/050563 and [17]). All members of the human chemokine family[164] are listed in column 1. Binding to human chemokines was determined for 14 tick CKBPs using biolayer interferometry (BLI) with calculated Kd shown as Molar (Moles/Litre). […] Association, equilibrium and dissociation data were analysed using Octet software to create corresponding fitted curves, and used to calculate Kd. For yeast surface display, (YSD) background fluorescence was controlled for by using either an empty vector or by omitting the chemokine (i.e. using streptavidin-Alexa647 alone). An arbitrary threshold of >3 fold over background mean fluorescence intensity was chosen to describe confirmed re-tests. Where binding was detected data are indicated as “YES”. […] Data was analysed using GraphPad Prism to determine IC50, which is shown as Molar (Moles/Litre). […]
# [7] = target: T7, CXCL8_HUMAN; assay: Biolayer interferometry (BLI) binding; design: label (chemical)
# Experimental: as §2
# [8] = system: chemokines; details: list of chemokines bound, from the literature [18,20-22]; cited from earlier work
# [9] = target: T6, CXCL1_HUMAN; details: read-out: Kd, CXCL1_HUMAN, previously described evasins; data obtained from publications [20-22,32]; cited from earlier work
# [10] = target: T7, CXCL8_HUMAN; details: read-out: Kd, CXCL8_HUMAN, previously described evasins; data obtained from publications [20-22,32]; cited from earlier work
# [11] = target: T8, CCL4_HUMAN; assay: Yeast surface display (YSD) FACS binding
# Outline: as §1
molecule,measurement,setting,value
B1,"Binding to CCL15_HUMAN, YSD",[1],YES (An arbitrary threshold of >3 fold over background mean fluorescence intensity was chosen to describe confirmed re-tests. Where binding was detected data are indicated as “YES”)
same,"Binding to CCL19_HUMAN, YSD",[2],YES (An arbitrary threshold of >3 fold over background mean fluorescence intensity was chosen to describe confirmed re-tests. Where binding was detected data are indicated as “YES”)
same,"Binding to CCL25_HUMAN, YSD",[3],YES (An arbitrary threshold of >3 fold over background mean fluorescence intensity was chosen to describe confirmed re-tests. Where binding was detected data are indicated as “YES”)
same,"Binding to CCL5_HUMAN, YSD",[4],YES (An arbitrary threshold of >3 fold over background mean fluorescence intensity was chosen to describe confirmed re-tests. Where binding was detected data are indicated as “YES”)
B2,Kd,[5],81 nM
same,Kd,[6],3.25 nM
same,Kd,[7],4.6 nM
B3,Previously described chemokine binding,[8],"CXCL1, CXCL8."
same,Kd,[9],0.85 nM
same,Kd,[10],0.43 nM
B4,"Binding to CCL4_HUMAN, YSD",[11],YES (An arbitrary threshold of >3 fold over background mean fluorescence intensity was chosen to describe confirmed re-tests. Where binding was detected data are indicated as “YES”)
